Source: publication PMC3089477

T1: BcnI H219N (UniProt Q8RNV8 1-238, H219N)
T1 sequence: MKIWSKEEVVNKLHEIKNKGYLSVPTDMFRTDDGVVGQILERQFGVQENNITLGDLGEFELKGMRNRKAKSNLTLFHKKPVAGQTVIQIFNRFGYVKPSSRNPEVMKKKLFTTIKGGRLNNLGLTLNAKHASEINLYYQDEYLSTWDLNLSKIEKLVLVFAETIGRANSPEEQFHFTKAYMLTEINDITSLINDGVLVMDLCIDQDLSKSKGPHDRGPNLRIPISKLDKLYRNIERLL

T2: BcnI H77A (UniProt Q8RNV8 1-238, H77A)
T2 sequence: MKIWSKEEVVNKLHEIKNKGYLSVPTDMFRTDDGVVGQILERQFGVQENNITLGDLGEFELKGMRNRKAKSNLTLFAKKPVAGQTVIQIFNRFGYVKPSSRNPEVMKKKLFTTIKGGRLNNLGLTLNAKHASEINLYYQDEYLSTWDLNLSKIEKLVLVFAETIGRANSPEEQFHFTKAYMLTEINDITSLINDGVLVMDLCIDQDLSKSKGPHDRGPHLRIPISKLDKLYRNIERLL

T3: BcnI H77N (UniProt Q8RNV8 1-238, H77N)
T3 sequence: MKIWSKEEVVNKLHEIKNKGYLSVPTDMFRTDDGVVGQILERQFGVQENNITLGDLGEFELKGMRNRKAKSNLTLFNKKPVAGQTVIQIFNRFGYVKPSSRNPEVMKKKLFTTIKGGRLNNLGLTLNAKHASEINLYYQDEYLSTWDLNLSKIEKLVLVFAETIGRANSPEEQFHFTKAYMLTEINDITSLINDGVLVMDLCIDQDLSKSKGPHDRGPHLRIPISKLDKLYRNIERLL

T4: BcnI wt (UniProt Q8RNV8 1-238)
T4 sequence: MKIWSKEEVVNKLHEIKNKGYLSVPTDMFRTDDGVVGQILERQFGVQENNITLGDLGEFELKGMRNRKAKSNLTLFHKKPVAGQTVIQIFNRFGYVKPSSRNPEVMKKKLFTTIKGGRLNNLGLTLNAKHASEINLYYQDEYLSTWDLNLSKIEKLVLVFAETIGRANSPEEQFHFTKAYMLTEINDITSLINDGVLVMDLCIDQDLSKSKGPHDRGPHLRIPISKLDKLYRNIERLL

T5: BcnI H219Q (UniProt Q8RNV8 1-238, H219Q)
T5 sequence: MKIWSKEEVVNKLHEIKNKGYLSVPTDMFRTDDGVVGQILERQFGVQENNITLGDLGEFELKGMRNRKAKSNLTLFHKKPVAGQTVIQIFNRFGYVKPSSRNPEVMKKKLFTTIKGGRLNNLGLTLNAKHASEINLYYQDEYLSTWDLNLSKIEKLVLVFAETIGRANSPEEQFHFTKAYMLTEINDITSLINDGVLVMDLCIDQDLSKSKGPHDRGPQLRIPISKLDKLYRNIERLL

T6: BcnI H77N+H219N (UniProt Q8RNV8 1-238, H77N;H219N)
T6 sequence: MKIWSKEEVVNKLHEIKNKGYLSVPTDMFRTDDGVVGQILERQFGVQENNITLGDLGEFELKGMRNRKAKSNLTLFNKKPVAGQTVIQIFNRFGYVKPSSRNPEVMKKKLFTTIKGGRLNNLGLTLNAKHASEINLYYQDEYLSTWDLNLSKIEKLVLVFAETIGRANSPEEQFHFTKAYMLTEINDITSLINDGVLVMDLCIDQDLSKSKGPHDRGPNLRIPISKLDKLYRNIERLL

T7: BcnI H77A+H219N (UniProt Q8RNV8 1-238, H77A;H219N)
T7 sequence: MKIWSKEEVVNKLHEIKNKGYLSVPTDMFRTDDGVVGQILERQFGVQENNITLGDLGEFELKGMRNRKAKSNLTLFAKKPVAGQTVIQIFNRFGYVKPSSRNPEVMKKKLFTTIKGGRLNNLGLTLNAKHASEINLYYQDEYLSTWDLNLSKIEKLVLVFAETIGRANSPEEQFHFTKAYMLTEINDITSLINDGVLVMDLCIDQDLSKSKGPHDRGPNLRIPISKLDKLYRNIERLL

B1: CG oligoduplex (cognate) (dsDNA)
DNA 1: CGCACGACTTCCCGGAAGAGCACGC
DNA 2: GTTGCGTGCTCTTCCGGGAAGTCGTGCG
B2: TA oligoduplex (miscognate) (dsDNA)
DNA 1: CGCACGACTTCCTGGAAGAGCACGC
DNA 2: GTTGCGTGCTCTTCCAGGAAGTCGTGCG

Key:
Assay in all cases: EMSA
BcnI H219N = biological target: T1, BcnI H219N
BcnI H77A = biological target: T2, BcnI H77A
BcnI H77N = biological target: T3, BcnI H77N
BcnI wt = biological target: T4, BcnI wt
BcnI H219Q = biological target: T5, BcnI H219Q
BcnI H77N+H219N = biological target: T6, BcnI H77N+H219N
BcnI H77A+H219N = biological target: T7, BcnI H77A+H219N

Row | Binder | Kd (BcnI H219N) [nM] | Kd (BcnI H77A) [nM] | Kd (BcnI H77N) [nM] | Kd (BcnI wt) [nM] | Kd (BcnI H219Q) [nM] | Kd (BcnI H77N+H219N) [nM] | Kd (BcnI H77A+H219N) [nM]
1 | B1 | 0.4 | 0.25 | 0.3 | 0.5 | 0.6 | 20 | 0.5
2 | B2 | – | 25 | – | – | – | – | –
